Experimental data: patent US12618050B2, “Engineered polypeptides that exhibit increased catalytic efficiency for unnatural cofactors and uses thereof” (The Regents of the University of California, priority 2018, dated 2026)

B1: I195R-Y39Q: Bs GDH variant I195R Y39Q (protein)
chain: MYPDLKGKVVAITGAASGLGKAMAIRFGKEQAKVVINYQSNKQDPNEVKEEVIKAGGEAVVVQGDVTKEEDVKNIVQTAIKEFGTLDIMINNAGLENPVPSHEMPLKDWDKVIGTNLTGAFLGSREAIKYFVENDIKGNVINMSSVHEVIPWPLFVHYAASKGGIKLMTETLALEYAPKGIRVNNIGPGAINTPRNAEKFADPKQKADVESMIPMGYIGEPEEIAAVAAWLASKEASYVTGITLFADGGMTQYPSFQAGRG
B2: I195R-A93K: Bs GDH variant I195R A93K (protein)
chain: MYPDLKGKVVAITGAASGLGKAMAIRFGKEQAKVVINYYSNKQDPNEVKEEVIKAGGEAVVVQGDVTKEEDVKNIVQTAIKEFGTLDIMINNKGLENPVPSHEMPLKDWDKVIGTNLTGAFLGSREAIKYFVENDIKGNVINMSSVHEVIPWPLFVHYAASKGGIKLMTETLALEYAPKGIRVNNIGPGAINTPRNAEKFADPKQKADVESMIPMGYIGEPEEIAAVAAWLASKEASYVTGITLFADGGMTQYPSFQAGRG
B3: A93K: Bs GDH with A93K substitution (SEQ ID NO:3) (protein)
chain: MYPDLKGKVVAITGAASGLGKAMAIRFGKEQAKVVINYYSNKQDPNEVKEEVIKAGGEAVVVQGDVTKEEDVKNIVQTAIKEFGTLDIMINNKGLENPVPSHEMPLKDWDKVIGTNLTGAFLGSREAIKYFVENDIKGNVINMSSVHEVIPWPLFVHYAASKGGIKLMTETLALEYAPKGIRVNNIGPGAINTPINAEKFADPKQKADVESMIPMGYIGEPEEIAAVAAWLASKEASYVTGITLFADGGMTQYPSFQAGRG
modifications: A93K mutant GDH coding sequence
B4: A93K-Y39Q: Bs GDH variant A93K-Y39Q (protein)
chain: MYPDLKGKVVAITGAASGLGKAMAIRFGKEQAKVVINYQSNKQDPNEVKEEVIKAGGEAVVVQGDVTKEEDVKNIVQTAIKEFGTLDIMINNKGLENPVPSHEMPLKDWDKVIGTNLTGAFLGSREAIKYFVENDIKGNVINMSSVHEVIPWPLFVHYAASKGGIKLMTETLALEYAPKGIRVNNIGPGAINTPINAEKFADPKQKADVESMIPMGYIGEPEEIAAVAAWLASKEASYVTGITLFADGGMTQYPSFQAGRG
B5: Y39Q: Bs GDH with Y39Q substitution (SEQ ID NO:4) (protein)
chain: MYPDLKGKVVAITGAASGLGKAMAIRFGKEQAKVVINYQSNKQDPNEVKEEVIKAGGEAVVVQGDVTKEEDVKNIVQTAIKEFGTLDIMINNAGLENPVPSHEMPLKDWDKVIGTNLTGAFLGSREAIKYFVENDIKGNVINMSSVHEVIPWPLFVHYAASKGGIKLMTETLALEYAPKGIRVNNIGPGAINTPINAEKFADPKQKADVESMIPMGYIGEPEEIAAVAAWLASKEASYVTGITLFADGGMTQYPSFQAGRG
modifications: Y39Q mutant GDH coding sequence
B6: S17Q-P194N (protein)
chain: MYPDLKGKVVAITGAAQGLGKAMAIRFGKEQAKVVINYYSNKQDPNEVKEEVIKAGGEAVVVQGDVTKEEDVKNIVQTAIKEFGTLDIMINNAGLENPVPSHEMPLKDWDKVIGTNLTGAFLGSREAIKYFVENDIKGNVINMSSVHEVIPWPLFVHYAASKGGIKLMTETLALEYAPKGIRVNNIGPGAINTNINAEKFADPKQKADVESMIPMGYIGEPEEIAAVAAWLASKEASYVTGITLFADGGMTQYPSFQAGRG
B7: M143G-L19G-I224R (protein)
chain: MYPDLKGKVVAITGAASGGGKAMAIRFGKEQAKVVINYYSNKQDPNEVKEEVIKAGGEAVVVQGDVTKEEDVKNIVQTAIKEFGTLDIMINNAGLENPVPSHEMPLKDWDKVIGTNLTGAFLGSREAIKYFVENDIKGNVINGSSVHEVIPWPLFVHYAASKGGIKLMTETLALEYAPKGIRVNNIGPGAINTPINAEKFADPKQKADVESMIPMGYIGEPEERAAVAAWLASKEASYVTGITLFADGGMTQYPSFQAGRG
B8: N92V (protein)
chain: MYPDLKGKVVAITGAASGLGKAMAIRFGKEQAKVVINYYSNKQDPNEVKEEVIKAGGEAVVVQGDVTKEEDVKNIVQTAIKEFGTLDIMINVAGLENPVPSHEMPLKDWDKVIGTNLTGAFLGSREAIKYFVENDIKGNVINMSSVHEVIPWPLFVHYAASKGGIKLMTETLALEYAPKGIRVNNIGPGAINTPINAEKFADPKQKADVESMIPMGYIGEPEEIAAVAAWLASKEASYVTGITLFADGGMTQYPSFQAGRG
B9: G94S (protein)
chain: MYPDLKGKVVAITGAASGLGKAMAIRFGKEQAKVVINYYSNKQDPNEVKEEVIKAGGEAVVVQGDVTKEEDVKNIVQTAIKEFGTLDIMINNASLENPVPSHEMPLKDWDKVIGTNLTGAFLGSREAIKYFVENDIKGNVINMSSVHEVIPWPLFVHYAASKGGIKLMTETLALEYAPKGIRVNNIGPGAINTPINAEKFADPKQKADVESMIPMGYIGEPEEIAAVAAWLASKEASYVTGITLFADGGMTQYPSFQAGRG
B10: M143S (protein)
chain: MYPDLKGKVVAITGAASGLGKAMAIRFGKEQAKVVINYYSNKQDPNEVKEEVIKAGGEAVVVQGDVTKEEDVKNIVQTAIKEFGTLDIMINNAGLENPVPSHEMPLKDWDKVIGTNLTGAFLGSREAIKYFVENDIKGNVINSSSVHEVIPWPLFVHYAASKGGIKLMTETLALEYAPKGIRVNNIGPGAINTPINAEKFADPKQKADVESMIPMGYIGEPEEIAAVAAWLASKEASYVTGITLFADGGMTQYPSFQAGRG
B11: N92A (protein)
chain: MYPDLKGKVVAITGAASGLGKAMAIRFGKEQAKVVINYYSNKQDPNEVKEEVIKAGGEAVVVQGDVTKEEDVKNIVQTAIKEFGTLDIMINAAGLENPVPSHEMPLKDWDKVIGTNLTGAFLGSREAIKYFVENDIKGNVINMSSVHEVIPWPLFVHYAASKGGIKLMTETLALEYAPKGIRVNNIGPGAINTPINAEKFADPKQKADVESMIPMGYIGEPEEIAAVAAWLASKEASYVTGITLFADGGMTQYPSFQAGRG
B12: I195S (protein)
chain: MYPDLKGKVVAITGAASGLGKAMAIRFGKEQAKVVINYYSNKQDPNEVKEEVIKAGGEAVVVQGDVTKEEDVKNIVQTAIKEFGTLDIMINNAGLENPVPSHEMPLKDWDKVIGTNLTGAFLGSREAIKYFVENDIKGNVINMSSVHEVIPWPLFVHYAASKGGIKLMTETLALEYAPKGIRVNNIGPGAINTPSNAEKFADPKQKADVESMIPMGYIGEPEEIAAVAAWLASKEASYVTGITLFADGGMTQYPSFQAGRG
B13: I195T (protein)
chain: MYPDLKGKVVAITGAASGLGKAMAIRFGKEQAKVVINYYSNKQDPNEVKEEVIKAGGEAVVVQGDVTKEEDVKNIVQTAIKEFGTLDIMINNAGLENPVPSHEMPLKDWDKVIGTNLTGAFLGSREAIKYFVENDIKGNVINMSSVHEVIPWPLFVHYAASKGGIKLMTETLALEYAPKGIRVNNIGPGAINTPTNAEKFADPKQKADVESMIPMGYIGEPEEIAAVAAWLASKEASYVTGITLFADGGMTQYPSFQAGRG
B14: L19H-I191S (protein)
chain: MYPDLKGKVVAITGAASGHGKAMAIRFGKEQAKVVINYYSNKQDPNEVKEEVIKAGGEAVVVQGDVTKEEDVKNIVQTAIKEFGTLDIMINNAGLENPVPSHEMPLKDWDKVIGTNLTGAFLGSREAIKYFVENDIKGNVINMSSVHEVIPWPLFVHYAASKGGIKLMTETLALEYAPKGIRVNNIGPGASNTPINAEKFADPKQKADVESMIPMGYIGEPEEIAAVAAWLASKEASYVTGITLFADGGMTQYPSFQAGRG
B15: M143T (protein)
chain: MYPDLKGKVVAITGAASGLGKAMAIRFGKEQAKVVINYYSNKQDPNEVKEEVIKAGGEAVVVQGDVTKEEDVKNIVQTAIKEFGTLDIMINNAGLENPVPSHEMPLKDWDKVIGTNLTGAFLGSREAIKYFVENDIKGNVINTSSVHEVIPWPLFVHYAASKGGIKLMTETLALEYAPKGIRVNNIGPGAINTPINAEKFADPKQKADVESMIPMGYIGEPEEIAAVAAWLASKEASYVTGITLFADGGMTQYPSFQAGRG

assay: GDH enzymatic assay with NMN^+ as cofactor; type: biochemical; conditions: specific activity towards NMN^+
Procedure: GDH enzymatic assays. The GDH activity was measured as described in Hilt et al. (Biochimica et biophysica acta 1076(2):298-304 (1991)). The reactions were started by adding the purified protein to the assay mixture containing 35 mM Tris-HCl buffer (pH 8.0), 3 mM NAD^+, NADP^+ or NMN^+ and 140 mM glucose. The absorbance variation at 340 nm was detected by a spectrophotometer at 25° C.

Molecule	lower activity than GDH Triple [fold]	slower than I195R [fold]
B1	14	2.4
B2	9	–

same assay, conditions: without I195R

Molecule	impact of mutation on activity towards NMN^+
B3	lack of impact on activity
B4	lack of impact on activity
B5	lack of impact on activity

assay: Protein expression levels of GDH variants; parameters: species or system Escherichia coli; conditions: expressed in E. coli
Procedure: Proteins were purified as 6×His tag fusion at the N-terminus. E. coli BL21 (DE3) with plasmids were inoculated into LB medium with 200 mg L^−1 ampicillin. Cells were induced with 0.5 mM IPTG and expressed for 24 hours at 30° C. with shaking at 250 rpm. BM3 cytochrome P450 was extracted with the EMD Millipore™ BugBuste Plus Lysonase Kit and purified using the HisPur™ Ni-NTA Superflow Purification System according to the manufacturer's instructions. Other proteins were purified using His-Spin Protein Miniprep kit (Zymo Research Corporation, CA). The purified proteins were quantified by Bradford assay.

Molecule	Expression level
B6	117.63 μg protein/ml culture
B7	No expression (<1) μg protein/ml culture
B8	57.56 μg protein/ml culture
B9	117.50 μg protein/ml culture
B10	40.60 μg protein/ml culture
B1	57.60 μg protein/ml culture
B11	81.16 μg protein/ml culture
B2	11.17 μg protein/ml culture
B12	96.33 μg protein/ml culture
B13	105.51 μg protein/ml culture
B14	No expression (<1) μg protein/ml culture
B15	94.55 μg protein/ml culture
